System: Tenascin-C (human)
Assay: competition

Substance | IC50 (MAG2 conjugate, monomer comparator) [nM] | EC50 (two TTA1-MAG2 joined via bis-maleimide peptide linker P5 (bAla-Ser-Ser-Ser-Dpr-Met-Cys-Ser-Ser-Ser-Lys), competition binding assay against the lead compound) [nM]
TTA1-MAG2 aptamer monomer (2A, lead compound) | 5.6 | 
(TTA1-MAG2)2P5 aptamer dimer (22A) |  | 3.6

Source: US20080207523
